One block for each substance: values may come before it.
Experiments:
Experiment in all cases: ITC
[1] = molecular target: untagged β′-COP residues 1–604 (yeast (S. cerevisiae)) (UniProt P41811)
[2] = molecular target: C-terminal β′-COP propeller (residues 300–604), untagged (yeast (S. cerevisiae)) (UniProt P41811)
[3] = molecular target: β′-COP R13A/K15A/R59A (RKR mutant), residues 1–604, untagged (yeast (S. cerevisiae)) (UniProt P41811)

Sequence of untagged β′-COP residues 1–604 (yeast (S. cerevisiae)) (P41811 1-604): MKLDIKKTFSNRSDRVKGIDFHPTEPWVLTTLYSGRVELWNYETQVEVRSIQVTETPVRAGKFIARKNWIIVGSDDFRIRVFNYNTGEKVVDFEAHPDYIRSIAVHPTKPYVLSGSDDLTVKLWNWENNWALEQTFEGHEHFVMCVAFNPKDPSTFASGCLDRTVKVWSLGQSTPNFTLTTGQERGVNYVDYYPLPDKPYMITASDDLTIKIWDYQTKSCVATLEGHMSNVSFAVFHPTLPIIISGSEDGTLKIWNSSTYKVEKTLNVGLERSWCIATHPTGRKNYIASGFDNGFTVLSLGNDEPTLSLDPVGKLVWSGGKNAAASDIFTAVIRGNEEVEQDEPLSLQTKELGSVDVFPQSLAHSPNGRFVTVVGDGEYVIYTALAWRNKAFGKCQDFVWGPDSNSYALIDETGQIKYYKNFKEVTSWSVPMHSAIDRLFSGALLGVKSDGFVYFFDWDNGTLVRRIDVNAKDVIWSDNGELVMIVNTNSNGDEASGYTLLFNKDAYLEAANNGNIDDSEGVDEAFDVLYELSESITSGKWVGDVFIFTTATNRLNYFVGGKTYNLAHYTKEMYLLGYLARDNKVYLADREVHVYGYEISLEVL
Sequence of C-terminal β′-COP propeller (residues 300–604), untagged (yeast (S. cerevisiae)) (P41811 300-604): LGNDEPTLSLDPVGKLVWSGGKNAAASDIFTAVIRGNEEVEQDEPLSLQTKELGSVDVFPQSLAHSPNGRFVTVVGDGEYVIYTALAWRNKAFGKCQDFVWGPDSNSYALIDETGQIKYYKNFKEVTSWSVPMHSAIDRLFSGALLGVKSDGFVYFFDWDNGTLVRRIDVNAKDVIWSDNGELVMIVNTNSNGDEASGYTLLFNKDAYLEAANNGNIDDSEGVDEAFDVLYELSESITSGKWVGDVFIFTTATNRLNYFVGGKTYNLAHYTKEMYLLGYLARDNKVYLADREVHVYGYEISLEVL
Sequence of untagged Glo3 BoCCS fragment (residues 230–300) (P38682 230-300): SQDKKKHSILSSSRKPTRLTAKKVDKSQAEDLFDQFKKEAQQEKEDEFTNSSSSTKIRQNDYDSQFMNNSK
Sequence of untagged Glo3 residues 230–290 (P38682 230-290): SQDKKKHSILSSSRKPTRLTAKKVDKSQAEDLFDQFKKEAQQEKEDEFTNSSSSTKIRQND

Kd [1]: > 300 µM
Substance: Glo3 fragment lacking N-terminal residues 230–240, untagged (domain or fragment)

stoichiometry N [1]: 1
Substance: full BoCCS Glo3 fragment (residues 208–383), untagged (from UniProt P38682 208-383) (domain or fragment)

Kd [2]: < 300 µM
Substance: untagged Glo3 BoCCS fragment (residues 230–300) (from UniProt P38682 230-300) (domain or fragment)

fold weaker binding than wild-type β′-COP [3]: 16 fold
Substance: untagged Glo3 residues 230–290 (from UniProt P38682 230-290) (domain or fragment)

— publication PMC9960064
